Assay results as given in article PMC6936867 (2019).

B1: FcγRIIa H131 (receptor)
chain: QAAAPPKAVLKLEPPWINVLQEDSVTLTCQGARSPESDSIQWFHNGNLIPTHTQPSYRFKANNNDSGEYTCQTGQTSLSDPVHLTVLSEWLVLQTPHLEFQEGETIMLRCHSWKDKPLVKVTFFQNGKSQKFSHLDPTFSIPQANHSHSGDYHCTGNIGYTLFSSKPVTITVQVPSMGSSSPMGIIVAVVIATAVAAIVAAVVALIYCRKKRISANSTDPVKAAQFEPPGRQMIAIRKRQLEETNNDYETADGGYMTLNPRAPTDDDKNIYLTLPPNDHVNSNN
B2: FcγRIIb (receptor)
chain: TPAAPPKAVLKLEPQWINVLQEDSVTLTCRGTHSPESDSIQWFHNGNLIPTHTQPSYRFKANNNDSGEYTCQTGQTSLSDPVHLTVLSEWLVLQTPHLEFQEGETIVLRCHSWKDKPLVKVTFFQNGKSKKFSRSDPNFSIPQANHSHSGDYHCTGNIGYTLYSSKPVTITVQAPSSSPMGIIVAVVTGIAVAAIVAAVVALIYCRKKRISALPGYPECREMGETLPEKPANPTNPDEADKVGAENTITYSLLMHPDALEEPDDQNRI
B3: FcγRIIa R131 (receptor)
chain: QAAAPPKAVLKLEPPWINVLQEDSVTLTCQGARSPESDSIQWFHNGNLIPTHTQPSYRFKANNNDSGEYTCQTGQTSLSDPVHLTVLSEWLVLQTPHLEFQEGETIMLRCHSWKDKPLVKVTFFQNGKSQKFSRLDPTFSIPQANHSHSGDYHCTGNIGYTLFSSKPVTITVQVPSMGSSSPMG

Target: CAP256 pIgG
Assay: SPR

Row | Binder | Kd
1 | B1 | 5.8 µM
2 | B2 | 5.3 µM
3 | B3 | 4.6 µM
